From patent US20160137746A1, “METHODS FOR TREATING HIGH CARDIOVASCULAR RISK PATIENTS WITH HYPERCHOLESTEROLEMIA” (Sanofi Biotechnology, priority 2014, published 2016)

System: high cardiovascular risk patients with hypercholesterolemia
Test: ODYSSEY LONG TERM: long-term safety and tolerability
[1] = Final analysis, Safety Analysis
[2] = Final analysis, Safety Analysis (N = 1550)
[3] = Safety population, 223 patients, pre-specified analysis
[4] = Safety population, 562 patients, pre-specified analysis
[5] = Safety population, treatment period, pre-specified analysis, 150 Q2W
[6] = TEAE period, pre-specified analysis
[7] = alirocumab patients with two consecutive LDL-C <25 mg/dL (n = 562), pre-specified analysis

Protocol: Safety parameters (adverse events [including adjudicated cardiovascular events], laboratory data, vital signs, and ECG) were assessed throughout the study.
Safety endpoints assessed in this trial were: cardiovascular events; allergic events; local tolerability at injection site; other adverse events (including hemolytic anemia); laboratory tests: urinalysis, hematology (red blood cell count, red blood cell distribution width (RDW), reticulocyte count, hemoglobin, hematocrit, platelets, white blood cell count with differential blood count), standard chemistry (sodium, potassium, chloride, bicarbonate, calcium, phosphorous, urea nitrogen, creatinine, uric acid, total protein, albumin, LDH, γ Glutamyl Transferase [γGT]), Vitamin E (alpha tocopherol) and other Fat Soluble Vitamins, cortisol (and reflexive ACTH levels, as needed, followed by ACTH stimulation test, as needed), Gonadal Hormone Assessments, Hepatitis C antibody, liver panel (ALT, AST, ALP, and total bilirubin), and CPK; vital signs including heart rate and blood pressure; and 12-lead ECG.
The safety population included all randomized patients who received at least one dose or part of a dose of the double-blind IMP.
Safety analyses were descriptive, performed on the safety population according to treatment actually received. The safety analysis focused on the TEAE period defined as the time from the first dose of double-blind injection up to 70 days after the last double-blind injection. TEAE which developed, worsened or became serious or PCSA occurring after the patient's first injection in the open-label extension study (LTS13643) were not considered in the TEAE period. TEAE period was truncated at the common study cut-off date.

Substance: Alirocumab: human anti-PCSK9 antibody; HCVR SEQ ID NO:1, LCVR SEQ ID NO:6; CDRs SEQ ID NOs 2/3/4/7/8/10
- Alanine aminotransferase >3 times ULN, % [1]: (1.8) %
- Alanine aminotransferase >3 times ULN, n/N [1]: 28/1533
- Aspartate aminotransferase >3 times ULN, % [1]: (1.4) %
- Aspartate aminotransferase >3 times ULN, n/N [1]: 22/1533
- Creatine kinase >3 times ULN, % [1]: (3.7) %
- Creatine kinase >3 times ULN, n/N [1]: 56/1507
- Diabetes in patients with no history of diabetes, % [1]: (1.8) %
- Diabetes in patients with no history of diabetes, n/N [1]: 18/994
- Worsening of diabetes in patients with history of diabetes, % [1]: (12.9) %
- Worsening of diabetes in patients with history of diabetes, n/N [1]: 72/556
- Amnesia, % of patients [2]: (0.3) %
- Amnesia, No. of patients [2]: 5
- CHD death including unknown cause, % of patients [2]: (0.3) %
- CHD death including unknown cause, No. of patients [2]: 4
- Confusional state, % of patients [2]: (0.3) %
- Confusional state, No. of patients [2]: 4
- Congestive heart failure requiring hospitalization, % of patients [2]: (0.6) %
- Congestive heart failure requiring hospitalization, No. of patients [2]: 9
- Fatal and non-fatal ischemic stroke, % of patients [2]: (0.6) %
- Fatal and non-fatal ischemic stroke, No. of patients [2]: 9
- General allergic reaction events, % of patients [2]: (10.1) %
- General allergic reaction events, No. of patients [2]: 156
- Hemolytic anemia, No. of patients [2]: 0
- Ischemia-driven coronary revascularization procedure, % of patients [2]: (3.1) %
- Ischemia-driven coronary revascularization procedure, No. of patients [2]: 48
- Local injection site reaction, % of patients [2]: (5.9) %
- Local injection site reaction, No. of patients [2]: 91
- Memory impairment, % of patients [2]: (0.3) %
- Memory impairment, No. of patients [2]: 4
- Myalgia, % of patients [2]: (5.4) %
- Myalgia, No. of patients [2]: 84
- Neurocognitive disorders, % of patients [2]: (1.2) %
- Neurocognitive disorders, No. of patients [2]: 18
- Neurological events, % of patients [2]: (4.2) %
- Neurological events, No. of patients [2]: 65
- Non-fatal MI, % of patients [2]: (0.9) %
- Non-fatal MI, No. of patients [2]: 14
- Ophthalmological events, % of patients [2]: (2.9) %
- Ophthalmological events, No. of patients [2]: 35
- Positively adjudicated cardiovascular events (including all cardiovascular AEs listed above), % of patients [2]: (4.6) %
- Positively adjudicated cardiovascular events (including all cardiovascular AEs listed above), No. of patients [2]: 72
- Post hoc analysis of a subgroup of adjudicated MACE, % of patients [2]: (1.7) %
- Post hoc analysis of a subgroup of adjudicated MACE, No. of patients [2]: 27
- TEAEs leading to death, % of patients [2]: (0.5) %
- TEAEs leading to death, No. of patients [2]: 8
- TEAEs leading to discontinuation, % of patients [2]: (7.2) %
- TEAEs leading to discontinuation, No. of patients [2]: 111
- TEAEs, % of patients [2]: (81.0) %
- TEAEs, No. of patients [2]: 1255
- Treatment-emergent SAEs, % of patients [2]: (18.7) %
- Treatment-emergent SAEs, No. of patients [2]: 290
- Time to the first calculated LDL-C value <15 mg/dL, mean (SD) [3]: 12.99 (12.43) weeks
- Time to the first calculated LDL-C value <15 mg/dL, median [3]: 8.14 weeks
- Time to the first calculated LDL-C value <25 mg/dL, mean (SD) [4]: 11.03 (11.51) weeks
- Time to the first calculated LDL-C value <25 mg/dL, median [4]: 4.86 weeks
- Patients with 2 consecutive calculated LDL-C value <15 mg/dL, % [5]: (14.8%)
- Patients with 2 consecutive calculated LDL-C value <15 mg/dL, n/N [5]: 223/1503
- Patients with 2 consecutive calculated LDL-C value <25 mg/dL, % [5]: (37.4%)
- Patients with 2 consecutive calculated LDL-C value <25 mg/dL, n/N [5]: 562/1503
- Cardiovascular death per adjudication [6]: 5 (0.3%) n (%)
- Patients with decreased plasma vitamin E levels below the outer limit of normal (31 out of 1461) [6]: 2.1%
- SAEs [6]: 255 (16.5%) n (%)
- AE of special interest: All adjudicated cardiovascular events, % of patients [7]: 4.3%
- AE of special interest: General allergic reaction events, % of patients [7]: 8.0%
- AE of special interest: Haemolytic anaemia, % (n) of patients [7]: 0
- AE of special interest: Neurocognitive disorders, % of patients [7]: 0.7%
- AE of special interest: Neurological events, % of patients [7]: 3.2%
- AE of special interest: Ophthalmological events, % of patients [7]: 2.5%
- AE of special interest: Treament-emergent local injection site reactions, % of patients [7]: 6.2%
- Neurocognitive AE: Amnesia, % (n) of patients [7]: 0
- Neurocognitive AE: Any neurocognitive disorder, % of patients [7]: 0.7%
- Neurocognitive AE: Confusion postoperative, % (n) of patients [7]: 0
- Neurocognitive AE: Confusional state, % of patients [7]: 0.2% (1)
- Neurocognitive AE: Dementia, % of patients [7]: 0.2% (1)
- Neurocognitive AE: Disorientation, % (n) of patients [7]: 0
- Neurocognitive AE: Disturbance in attention, % (n) of patients [7]: 0
- Neurocognitive AE: Frontotemporal dementia, % of patients [7]: 0.2% (1)
- Neurocognitive AE: Memory impairment, % (n) of patients [7]: 0
- Neurocognitive AE: Transient global amnesia, % (n) of patients [7]: 0
- TEAE ALT increase, % of patients [7]: 0.7%
- TEAE AST increase, % of patients [7]: 0%
- TEAE Angina pectoris, % of patients [7]: 1.8% (10)
- TEAE Arthralgia, % of patients [7]: 3.2% (18)
- TEAE Atrial fibrillation, % of patients [7]: 1.6% (9)
- TEAE Back pain, % of patients [7]: 5.0% (28)
- TEAE Bronchitis, % of patients [7]: 5.2% (29)
- TEAE CPK increase, % of patients [7]: 0.2%
- TEAE Cellulitis, % of patients [7]: 1.6% (9)
- TEAE Confusion, % of patients [7]: 1.2% (7)
- TEAE Constipation, % of patients [7]: 1.6% (9)
- TEAE Cough, % of patients [7]: 2.0% (11)
- TEAE Depression, % of patients [7]: 1.4% (8)
- TEAE Diarrhea, % of patients [7]: 3.9% (22)
- TEAE Dizziness, % of patients [7]: 1.4% (8)
- TEAE Fall, % of patients [7]: 1.6% (9)
- TEAE Fatigue, % of patients [7]: 3.0% (17)
- TEAE Gastoenteritis, % of patients [7]: 0.7% (4)
- TEAE Headache, % of patients [7]: 1.8% (10)
- TEAE Hypertension, % of patients [7]: 2.0% (11)
- TEAE Influenza, % of patients [7]: 4.1% (23)
- TEAE Injection site reaction, % of patients [7]: 3.6% (20)
- TEAE Lower respiratory tract infection (LRTI), % of patients [7]: 2.8% (16)
- TEAE Muscle spasms, % of patients [7]: 2.8% (16)
- TEAE Musculoskeletal pain, % of patients [7]: 1.4% (8)
- TEAE Myalgia, % of patients [7]: 3.0% (17)
- TEAE Nasopharyngitis, % of patients [7]: 10.0% (56)
- TEAE Nausea, % of patients [7]: 0.9% (5)
- TEAE Non-cardiac chest pain, % of patients [7]: 2.0% (11)
- TEAE Osteoarthritis, % of patients [7]: 2.1% (12)
- TEAE Pain in extremity, % of patients [7]: 2.1% (12)
- TEAE Rhinitis, % of patients [7]: 1.2% (7)
- TEAE Sinusitis, % of patients [7]: 3.0% (17)
- TEAE Type-2 diabetes mellitus, % of patients [7]: 2.5% (14)
- TEAE leading to death, % of patients [7]: 0.5% (3)
- TEAEs by System-Organ-Class: Blood and lymphatic system disorders, % of patients [7]: 1.6% (9)
- TEAEs by System-Organ-Class: Cardiac disorders, % of patients [7]: 7.5% (42)
- TEAEs by System-Organ-Class: Ear and labyrinth disorders, % of patients [7]: 1.2% (7)
- TEAEs by System-Organ-Class: Eye disorders, % of patients [7]: 6.4% (36)
- TEAEs by System-Organ-Class: Gastrointestinal disorders, % of patients [7]: 13.7% (77)
- TEAEs by System-Organ-Class: General disorders and administration site conditions, % of patients [7]: 11.0% (62)
- TEAEs by System-Organ-Class: Injury, poisoning, and procedural complications, % of patients [7]: 10.5% (59)
